Patent US9217139B2, “Extracellularly secreted nuclease” (JAPAN AGENCY FOR MARINE-EARTH SCIENCE AND TECHNOLOGY, priority 2010, dated 2015)

B1: NucL: nucleolytic enzyme of about 66.5 kDa secreted by Streptomyces sp. MBE174; SEQ ID NO. 4 (protein)
chain: MASQSVTRLAALTVAATCSAASVVVLGPPAHADSVRIHDIQGTTRISPYAGRQVADVPGVVTGVRDHGSSRGFWFQDPRPDDDPATSEGVFVFTGSAPGVEAGDAVTVSGTVSEFVPGGTASGNQSLTEITRPTVTVVSRGNPVPDPVVVSARSVPHAYAPAGDAAANGSVNALPLRPDRYALDYYESLEGMNVQVADARVVGATDPYTELWVTVKPGENASPRGGTVYGSRDAQNTGRLQIQTLGVPAGFPAADVGDTLAGATTGPLDYNQFGGYTLVARSLGTLTAGGLARETTREQHRDELSVATYNVENLDPSDGTFAAHAEAIVRNLRSPDIVSLEEIQDDNGATDDGTVTAGVTVGKLIDAVVAAGGPRYDWRSVDPVDKADGGQPGGNIRQVFLFDPRRVSFADRPGGDAVTATGVVKVRGKAALTHSPGRVDPANPAWLNSRKPLAGEFSFRGRTVFVIANHFASKGGDQGLTSQYQPPARSSETQRHLQATAVNTFVKQILAVQKNADVIALGDINDFEFSGTTERLEAGGALWSAVRSLPPGERYSYVYQGNSQVLDQILVSPSIRRGHLSYDSVHINAEFHDQISDHDPQVLRYRP
modifications: Streptmyces sp. MBE174
B2: NucS: low-molecular-weight nucleolytic enzyme, about 17 to 21 kDa, secreted by Streptomyces sp. MBE174; SEQ ID NO. 3 (protein)
chain: MPKLYARRRFAVLAALTGLIASAGLFHGPAASAALPTPVSAATARGYLASLKVAPENRTGYKRDLFPHWITQSGTCNTRETVLKRDGTNVVTDAACAATSGSWYSPFDGATWTAASDVDIDHLVPLAEAWDSGASAWTTAQRQAFANDLTRPQLLAVTDTVNQSKGDKDPAEWMPPRAAYHCTYVRAWVQVKYYYGLSVDTAEKTALTNRLAGC
modifications: Streptmyces sp. MBE174

Legend:
Type in all cases: biochemical
[1] = test system: Circular plasmid DNA (pUC 18); assay: degradation of circular plasmid DNA (agarose gel electrophoresis); settings: single enzyme, 25 degrees Celsius, 15 minutes; NucL level up to 0.5 U
Protocol: Circular plasmid DNA (pUC 18) that had been purified by using a plasmid purification kit (HiSpeed (Registered Trademark) Plasmid Midi Kit; manufactured by QIAGEN, Cat no. 12643) was used as substrate to analyze nucleic-acid degradation styles of NucS and NucL. According to the standard specific activity measurement method, the enzyme solutions that were different in enzyme level as shown in the table below were added to a plasmid solution (about 2 to 10 μg). Then, a nucleic-acid degradation reaction was carried out at 25 degrees Celsius for 15 minutes. After the degradation, a reaction solution was subjected to a 1-percent agarose gel electrophoresis, and the degradation manner of the degraded DNA was analyzed.
Next, the enzyme level of NucL was increased to 0.5 U, and a test was conducted to examine if the plasmid could be completely degraded (referring to FIG. 13).

[2] = test system: salmon DNA (double-stranded DNA) and thermally-denatured DNA (single-stranded DNA); assay: reactivity test for single-stranded and double-stranded DNA; settings: 15-minute standard specific activity measurement method
Protocol: With the use of a 15-minute standard specific activity measurement method, the reactivity of each enzyme was tested for salmon DNA (double-stranded DNA) that was dissolved at low temperatures, as well as for the same DNA (single-stranded DNA) that had been subjected to thermal denaturation at 95 degrees Celsius for 10 minutes. […] That is, it can be said that NucL is an enzyme that efficiently works on single-stranded DNA.

[3] = test system: Deoxyribonucleic acid sodium salt from salmon testes; assay: effects of monovalent salt on enzyme activity; settings: 10 mM Tris/HCl pH 8.5, 1 mM MgCl2, 25 degrees Celsius
Protocol: Effects of monovalent salt on NucS and NucL were examined. At each concentration level of NaCl, the nucleic-acid degradation activity was measured at 25 degrees Celsius for 15 minutes by using, as substrate, Deoxyribonucleic acid sodium salt from salmon testes 0.4 mg/mL (manufactured by Sigma-Aldrich; Cat no. D1626-1G) in 10 mM of Tris/HCl at pH 8.5 that contained 1 mM of MgCl2 and 0 to 1,000 mM of NaCl. […] Substantially similar results were obtained even in the case of using KCl (referring to FIG. 8).

[4] = test system: Deoxyribonucleic acid sodium salt from salmon testes; assay: effects of pH on enzyme activity; settings: 25 degrees Celsius, 15 minutes, 1 mM MgCl2, 1 mM CaCl2
Protocol: At each level of pH, the nucleic-acid degradation activity was measured at 25 degrees Celsius for 15 minutes by using, as substrate, Deoxyribonucleic acid sodium salt from salmon testes 0.4 mg/mL (manufactured by Sigma-Aldrich; Cat no. D1626-1G) in 20 mM of the following solution containing 1 mM of MgCl2 and 1 mM of CaCl2: 2-morpholino ethanesulfonic acid; monohydrate/NaOH(MES, pH 5.5 to 7.0); 3-morpholino propanesulfonic acid/NaOH (MOPS, pH 7 to 8); N-tris(hydroxymethyl)methyl-3-aminopropanesulfonic acid/NaOH (TAPS, pH 8 to 9); N-cyclohexyl-2-aminoethanesulfonic acid/NaOH (CHES, pH 9 to 9.5); or N-cyclohexyl-3-aminopropanesulfonic acid/NaOH (CAPS, 9.5 to 10).

[5] = test system: Deoxyribonucleic acid sodium salt from salmon testes; assay: effects of divalent metal salt on enzyme activity; settings: 20 mM Tris/HCl pH 8.5, 1 mM CaCl2, 25 degrees Celsius
Protocol: Effects of divalent metal salt on NucS and NucL were examined. NucS or NucL was added to a reaction solution that was obtained by adding, as substrate, Deoxyribonucleic acid sodium salt from salmon testes 0.4 mg/mL (manufactured by Sigma-Aldrich; Cat no. D1626-1G) into 20 mM of Tris/HCl at pH 8.5 that contained 1 mM of CaCl2 and 0 to 20 mM of MgCl2 or MnCl2; and the mixture was incubated in ice for 30 minutes. Then, the nucleic-acid degradation activity was measured at 25 degrees Celsius for 15 minutes. […] Incidentally, in the present test, in order to enhance the stability of the enzymes, 1 mM of CaCl2 was added to all the reaction solutions.

Molecule	degradation of circular plasmid DNA, supercoiled or relaxed type [1]	efficiency of degrading thermally-denatured DNA compared with native DNA [2]	NaCl concentration up to which the enzyme remained active [3]	optimum reaction pH [4]	requirement of divalent metal salt for activation [5]	activity in dependence on NaCl concentration ([3]; 0 to 1,000 mM NaCl)	activity in the presence of 1 to 2 mM of MnCl2 compared with MgCl2 [5]
B1	could completely degrade the plasmids	about five times higher	up to 1,000 mM	around 8.8	required divalent metal salt for activation		
B2	could completely degrade the plasmids	at the same level of efficiency		around 8.5	required divalent metal salt for activation	high when the concentration of NaCl was low	substantially the same level of activity
